# Reference: article PMC7904734, “ORP/Osh mediate cross-talk between ER-plasma membrane contact site components and plasma membrane SNAREs” (Cellular and Molecular Life Sciences: CMLS, 2020)
# T1: Venus(C)·VAPA (lentiviral) (human), Q9P0L0
# T1 chain: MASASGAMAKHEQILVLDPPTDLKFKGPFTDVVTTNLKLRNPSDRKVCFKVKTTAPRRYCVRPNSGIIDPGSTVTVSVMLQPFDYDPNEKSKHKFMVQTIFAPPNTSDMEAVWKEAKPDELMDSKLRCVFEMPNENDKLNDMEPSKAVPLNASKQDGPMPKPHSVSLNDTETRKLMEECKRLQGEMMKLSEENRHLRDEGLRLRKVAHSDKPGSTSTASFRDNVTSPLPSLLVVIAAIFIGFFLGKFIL
# T2: His·Osh3p (S. cerevisiae, UniProt P38713 1-996)
# T2 construct: Osh3p, PCR amplified and cloned into vector 1509; also called His6-tagged Osh3p; source: bacterial production, purified (Ni-NTA agarose)
# T2 sequence (looked up): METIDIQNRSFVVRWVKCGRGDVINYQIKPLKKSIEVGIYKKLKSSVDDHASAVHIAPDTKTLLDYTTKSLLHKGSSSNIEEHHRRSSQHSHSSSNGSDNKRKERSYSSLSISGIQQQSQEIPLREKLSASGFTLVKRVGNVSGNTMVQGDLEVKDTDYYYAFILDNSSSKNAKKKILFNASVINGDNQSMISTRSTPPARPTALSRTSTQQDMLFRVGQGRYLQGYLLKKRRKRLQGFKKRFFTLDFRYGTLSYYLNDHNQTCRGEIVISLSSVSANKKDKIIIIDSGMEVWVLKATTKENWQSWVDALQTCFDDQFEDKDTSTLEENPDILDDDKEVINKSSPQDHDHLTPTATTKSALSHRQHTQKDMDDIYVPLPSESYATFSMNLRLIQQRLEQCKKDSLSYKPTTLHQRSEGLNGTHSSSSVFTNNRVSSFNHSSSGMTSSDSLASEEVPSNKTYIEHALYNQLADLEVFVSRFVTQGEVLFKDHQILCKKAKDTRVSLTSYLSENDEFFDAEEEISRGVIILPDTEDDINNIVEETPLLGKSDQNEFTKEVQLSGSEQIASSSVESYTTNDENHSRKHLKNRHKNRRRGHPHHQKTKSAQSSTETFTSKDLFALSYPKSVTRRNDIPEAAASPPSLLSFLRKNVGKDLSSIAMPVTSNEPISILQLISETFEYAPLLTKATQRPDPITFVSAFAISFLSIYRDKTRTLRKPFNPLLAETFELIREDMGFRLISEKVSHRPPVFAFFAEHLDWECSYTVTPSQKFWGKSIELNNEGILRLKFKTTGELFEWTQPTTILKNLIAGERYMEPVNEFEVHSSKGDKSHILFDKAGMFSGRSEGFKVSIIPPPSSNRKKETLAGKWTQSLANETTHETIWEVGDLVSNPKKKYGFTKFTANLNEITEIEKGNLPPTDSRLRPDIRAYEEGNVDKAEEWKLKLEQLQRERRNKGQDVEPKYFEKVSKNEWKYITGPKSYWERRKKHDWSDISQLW
# Tests used:
# [1] = molecular target: YFP(C)·Sec22p (S. cerevisiae) (UniProt P22214); experiment: split reporter (BiFC, NanoBiT); BiFC in living Δosh1-3 yeast cells (Y36), compared with wt (Y2)
# [2] = molecular target: T1, Venus(C)·VAPA (lentiviral) (human), …; experiment: split reporter (BiFC, NanoBiT); BiFC of Venus(N)·VAPA and Venus(C)·VAPA in wt mouse hippocampal neurons, lentiviral; scrambled or ORP2 shRNA; infected DIV 3 and fixed DIV 7, or infected DIV 7 and fixed DIV 14; settings: remark: other sources report otherwise
# His·Osh3p = molecular target: T2, His·Osh3p; experiment: pull-down; 2 μM GST·Sec9p(421–651) or GST on Glutathione-Agarose, equal molar His·Osh3p, 100 µl PBS + 0.1% Triton X-100, 1 h, room temperature; SDS-PAGE, Coomassie; settings: both partners purified
# YFP(N)·Sso1p, sequence (P32867 whole entry): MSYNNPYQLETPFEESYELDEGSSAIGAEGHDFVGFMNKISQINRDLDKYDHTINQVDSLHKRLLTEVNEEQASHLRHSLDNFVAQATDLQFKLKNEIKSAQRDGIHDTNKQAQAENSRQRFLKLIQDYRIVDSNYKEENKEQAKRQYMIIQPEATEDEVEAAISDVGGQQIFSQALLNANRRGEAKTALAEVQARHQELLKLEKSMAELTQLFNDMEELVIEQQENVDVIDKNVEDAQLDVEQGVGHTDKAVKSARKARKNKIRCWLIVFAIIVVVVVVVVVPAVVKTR
# YFP(C)·Sec22p (S. cerevisiae), sequence (P22214 whole entry): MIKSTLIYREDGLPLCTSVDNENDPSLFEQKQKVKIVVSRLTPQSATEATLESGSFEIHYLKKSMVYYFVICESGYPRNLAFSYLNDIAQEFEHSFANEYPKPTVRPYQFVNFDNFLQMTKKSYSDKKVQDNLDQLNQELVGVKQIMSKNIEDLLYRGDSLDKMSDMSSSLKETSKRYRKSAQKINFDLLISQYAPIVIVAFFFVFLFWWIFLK
molecule,measurement,setting,value
YFP(N)·Sso1p (from UniProt P32867 1-290) (natural protein),reduction of the BiFC signal in the Δosh1-3 strain against wt,[1],19%
"Venus(N)·VAPA (lentiviral), Q9P0L0 1-249 (natural protein) MASASGAMAKHEQILVLDPPTDLKFKGPFTDVVTTNLKLRNPSDRKVCFKVKTTAPRRYCVRPNSGIIDPGSTVTVSVMLQPFDYDPNEKSKHKFMVQTIFAPPNTSDMEAVWKEAKPDELMDSKLRCVFEMPNENDKLNDMEPSKAVPLNASKQDGPMPKPHSVSLNDTETRKLMEECKRLQGEMMKLSEENRHLRDEGLRLRKVAHSDKPGSTSTASFRDNVTSPLPSLLVVIAAIFIGFFLGKFIL","fold reduction of VAPA-VAPA BiFC patches in ORP2 KD cells (transduced DIV 3, fixed DIV 7)",[2],1.7 fold
same,"fold reduction of VAPA-VAPA BiFC patches in ORP2 KD cells (transduced DIV 7, fixed DIV 14)",[2],2.3 fold
"GST·Sec9p(421–651) (domain or fragment, S. cerevisiae, UniProt P40357 421-651, looked up, cut out of 1530 and cloned into 977) EEDEAVDEIKQEIKFTKQSSVASTRNTLKMAQDAERAGMNTLGMLGHQSEQLNNVEGNLDLMKVQNKVADEKVAELKKLNRSILAVHVSNPFNSKRRRREREEQLKNRKIEEKLMREQTSQQLSQSTQRIEGAMNANNNISEVRERYQRKNVLEKAKRYQFENDEEDDEMELEIDRNLDQIQQVSNRLKKMALTTGKELDSQQKRLNNIEESTDDLDINLHMNTNRLAGIR",binding result,His·Osh3p,binds
